Measurements published in patent US20190248888A1, “METHODS OF LOWERING BLOOD GLUCOSE LEVELS” (Regeneron Pharmaceuticals, Inc., priority 2016, published 2019).

Test system: pancreatic islets
Test: Ki67 staining of cell proliferation in pancreatic islets
Assay type: in vivo, mouse
Description: Ki67 staining was used to detect cell proliferation in pancreatic islets from GCGR-antibody treated mice. Cell proliferation was negligible in islets from control antibody treated mice and in non-Gcg(+) islet cells from GCGR-antibody treated mice (FIG. 3A). However, Ki67 staining was detected in GCG(+) cells from the GCGR-antibody treated mice (FIG. 3A).

B1: α-GCGR: potent monoclonal GCGR blocking antibody, HCVR/LCVR SEQ ID NOs: 86/88 (antibody, V domains shown)
VH: EVQLVESGGGLVQPGGSLRLSCAASGFTFSNYLMNWVRQAPGKGLEWLANIQEDGIEKYYVDSVKGRFTISRDNAKNSLYLQMNSLRAEDTAVYYCAREPSHYDILTGYDYYYGMDVWGQGTTVTVS
VL: DIQMTQSPSSLSASVGDRVTITCRASQGIRNDLGWYQQKPGKAPKRLIYAASSLQSGVPSRFSGSGSGTEFILTVSSLQPEDFATYYCLQYNSNPFTFGPGTKVDIK
proliferation rate in Slc38a5(+) relative to Slc38a5(−) α-cells (GCGR-antibody treated mice, 11 days): 4 times | Ki67 staining in GCG(+) cells (mice treated 11 days): detected
